Data: article PMC3621912 (Virology, 2012)

How the values were obtained:
[1] = biological target: the molecule itself; assay: non-reducing SDS-PAGE with gel densitometry
[2] = biological target: the molecule itself; assay: non-reducing SDS-PAGE with immunoblot
non-reducing SDS-PAGE = biological target: the molecule itself; assay: non-reducing SDS-PAGE

B1: protein VI with the G48C mutation, in AdV VI-G48C particles (natural protein)
chain: AFSWGSLWSGIKNFCSTVKNYGSKAWNSSTGQMLRDKLKEQNFQQKVVDGLASGISGVVDLANQAVQNKINSKLDPRPPVEEPPPAVETVSPEGRGEKRPRPDREETLVTQIDEPPSYEEALKQGLPTTRPIAPMATGVLGQHTPVTLDLPPPADTQQKPVLPGPTAVVVTRPSRASLRRAASGPRSLRPVASGNWQSTLNSIVGL
modifications: intermolecular disulfide bond between protein VI molecules (in the dimer fraction)
[1]
  ratio of monomer:dimer: ~1.4 dimer per monomer
[2]
  stoichiometry N: 2

B2: recombinant VI114-G48C (protein VI residues 34-114 with G48C) (domain or fragment)
chain: AFSWGSLWSGIKNFCSTVKNYGSKAWNSSTGQMLRDKLKEQNFQQKVVDGLASGISGVVDLANQAVQNKINSKLDPRPPVE
modifications: intermolecular disulfide bond (in the dimer fraction)
non-reducing SDS-PAGE
  stoichiometry N: 2
